Test results taken from the supplement of paper PMC12783771.
± gives the standard deviation of the averaged measurements.

B1: library; numbered along this chain (parent)
chain: MNIQIGELAKRTACPVVTIRFYEQEGLLPPPGRSRGNFRLYGEEHVERLQFIRHCRSLDMPLSDVRTLLSYRKRPDQDCGEVNMLLDEHIRQVESRIGALLELKHHLVELREACSGARPAQSCGILQGLSDCVCDTRGTTAHPSD

How the values were obtained:
[1] = variants of: B1; test: sfGFP reporter fluorescence (15 h) (µM FITC); higher = higher leak; conditions: library round: Round 0; ligand: none
Outline: (§1)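 An Echo normalized PCR-made linear PbrR templates to 5 nM and assembled 1 μL reactions in BL21 Star (DE3) PANOx-SP extract carrying the pPbrR-sfGFP reporter plasmid and 30 μg/mL GamS. Reactions received 1 µM lead chloride, 30 µM zinc acetate or no metal and stood 15 hr at 30 °C. Fluorescence at 485/528 nm (Synergy Neo2) was converted with FITC standard curves made in 50 mM sodium borate pH 8.5. Endpoint sfGFP signal is given in µM FITC, from up to three biological replicates.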

[2] = variants of: B1; test: sfGFP reporter fluorescence (15 h) (µM FITC); higher = stronger transcriptional activation; conditions: library round: Round 0
Outline: as §1

Row | Variant | sfGFP reporter fluorescence [1] | sfGFP reporter fluorescence ([2]; ligand: 1 µM Pb) | sfGFP reporter fluorescence ([2]; ligand: 30 µM Zn)
1 | L85R | 0.0596 ± 0.0018 | 0.0577 ± 0.00078 | 0.0652 ± 0.001
2 | L85S | 0.059 ± 0.0021 | 0.059 ± 0.0015 | 0.0627
3 | L85Q | 0.0586 ± 0.001 | 0.0581 ± 0.00078 | 0.0658 ± 0.0023
4 | E43K | 0.0594 | 0.109 ± 0.02 | 2.36 ± 0.049
5 | E43F | 0.05846 ± 0.00026 | 0.0828 ± 0.015 | 0.99 ± 0.18
6 | E43P | 0.05736 ± 0.00026 | 0.0674 ± 0.0093 | 0.7191 ± 0.0047
7 | E43C | 0.06066 ± 0.00026 | 0.0887 ± 0.0042 | 0.481 ± 0.018
8 | L68E | 0.0623 ± 0.00052 | 0.05974 ± 0.00052 | 0.0652 ± 0.0015
9 | L68W | 0.0627 ± 0.0026 | 0.06157 ± 0.00052 | 0.111 ± 0.0018
10 | L68D | 0.0619 ± 0.001 | 0.061 ± 0.0013 | 0.0636 ± 0.0023
11 | K104V L107C G128I | 0.483 ± 0.024 | 2.5 ± 0.27 | 3.37 ± 0.23
12 | S95A | 0.0625 ± 0.0013 | 0.0759 ± 0.0062 | 0.797 ± 0.063
13 | R33H | 0.0623 ± 0.00052 | 0.0607 ± 0.0029 | 0.0707
14 | R33I | 0.05772 ± 0.00026 | 0.05662 ± 0.00026 | 0.06542 ± 0.00026
15 | R33S | 0.0623 ± 0.00052 | 0.0605 ± 0.0031 | 0.0656 ± 0.001
16 | R33Q | 0.0623 ± 0.001 | 0.0612 ± 0.001 | 0.0711 ± 0.0026
17 | C79G | 0.0553 ± 0.0021 | 0.0552 ± 0.0013 | 0.0522 ± 0.0013
18 | C79L | 0.0555 ± 0.0023 | 0.0553 ± 0.0021 | 0.05498 ± 0.00052
19 | C79P | 0.057 ± 0.00078 | 0.05772 ± 0.00026 | 0.05351 ± 0.00052
20 | I19A | 0.0577 ± 0.0013 | 0.0592 ± 0.00078 | 0.08063 ± 0.00052
21 | L107N | 0.0546 ± 0.0047 | 0.0759 ± 0.0015 | 0.511 ± 0.027
22 | L107I | 0.0579 ± 0.001 | 0.0671 ± 0.0036 | 0.808 ± 0.065
23 | L107G | 0.05956 ± 0.00026 | 0.0836 ± 0.0036 | 0.4444 ± 0.0044

Row | Variant | sfGFP reporter fluorescence [1] | sfGFP reporter fluorescence ([2]; ligand: 1 µM Pb) | sfGFP reporter fluorescence ([2]; ligand: 30 µM Zn)
24 | L107A | 0.514 ± 0.0098 | 1.97 ± 0.12 | 2.84 ± 0.79
25 | M60Y | 0.0621 ± 0.0013 | 0.0662 ± 0.0013 | 0.12 ± 0.00078
26 | M60A | 0.0643 ± 0.0029 | 0.0619 ± 0.001 | 0.0713 ± 0.007
27 | D64K K104V L107C | 2.05 ± 0.034 | 4.21 ± 0.2 | 4.1 ± 0.055
28 | T139A | 0.0616 ± 0.0015 | 0.0737 ± 0.0036 | 0.7601 ± 0.0031
29 | M60L D64K K104V L107C | 3.73 ± 0.15 | 4.15 ± 0.39 | 3.44 ± 0.57
30 | C123D | 0.0577 ± 0.0039 | 0.0586 | 0.0564 ± 0.0031
31 | V16K | 0.0641 ± 0.0021 | 0.115 ± 0.0021 | 1.93 ± 0.075
32 | R20G | 0.05864 ± 0.00052 | 0.0563 ± 0.0018 | 0.0625 ± 0.0034
33 | R20Y | 0.06249 ± 0.00026 | 0.06377 ± 0.00052 | 0.124 ± 0.0018
34 | R20I | 0.0585 ± 0.00078 | 0.06285 ± 0.00026 | 0.142 ± 0.0057
35 | E109R | 0.06542 ± 0.00026 | 0.102 ± 0.0078 | 1.86 ± 0.052
36 | E109C | 0.0596 ± 0.00078 | 0.0867 ± 0.0054 | 1.54 ± 0.077
37 | E109V | 0.0605 ± 0.0042 | 0.107 ± 0.0096 | 1.69 ± 0.1
38 | E109T | 0.0625 ± 0.0018 | 0.0935 ± 0.0026 | 1.71 ± 0.12
39 | M60L G128I | 0.336 ± 0.012 | 1.4 ± 0.016 | 3.625 ± 0.027
40 | G6V | 0.0618 ± 0.0013 | 0.0618 ± 0.0013 | 0.0651 ± 0.0013
41 | G6S | 0.0608 ± 0.0021 | 0.06853 ± 0.00052 | 0.412 ± 0.027
42 | G6F | 0.0592 ± 0.0018 | 0.06029 ± 0.00026 | 0.0629 ± 0.00078
43 | Y22V | 0.06359 ± 0.00026 | 0.0614 ± 0.00078 | 0.0641 ± 0.0021
44 | Y22M | 0.0638 ± 0.001 | 0.0612 ± 0.0031 | 0.064 ± 0.0013
45 | Y22G | 0.0594 ± 0.0031 | 0.05846 ± 0.00026 | 0.0605 ± 0.0015
46 | I90N | 0.05717 ± 0.00052 | 0.0601 ± 0.0036 | 0.279 ± 0.012

Row | Variant | sfGFP reporter fluorescence [1] | sfGFP reporter fluorescence ([2]; ligand: 1 µM Pb) | sfGFP reporter fluorescence ([2]; ligand: 30 µM Zn)
47 | I90C | 0.0592 ± 0.0018 | 0.0656 ± 0.00052 | 0.568 ± 0.012
48 | P30Y | 0.0616 ± 0.001 | 0.0771 ± 0.0049 | 0.612 ± 0.013
49 | P30W | 0.0634 ± 0.0015 | 0.0722 ± 0.0031 | 0.33 ± 0.015
50 | P30K | 0.0632 ± 0.0029 | 0.0845 ± 0.0013 | 1.03 ± 0.023
51 | P30I | 0.0563 ± 0.0039 | 0.0869 ± 0.001 | 0.926 ± 0.2
52 | M60L D64K L107C G128I | 5.03 ± 0.22 | 4.57 ± 0.23 | 3.85 ± 0.9
53 | L110R | 0.0579 ± 0.0015 | 0.0596 ± 0.00078 | 0.06615 ± 0.00026
54 | L110T | 0.05736 ± 0.00026 | 0.0601 ± 0.001 | 0.158 ± 0.0029
55 | L110C | 0.05754 ± 0.00052 | 0.0577 ± 0.00078 | 0.0766 ± 0.0042
56 | L126C | 0.059 ± 0.0036 | 0.0572 ± 0.001 | 0.0563 ± 0.0029
57 | R111G | 0.0535 | 0.0623 ± 0.001 | 0.343 ± 0.0083
58 | R111H | 0.05791 ± 0.00052 | 0.0652 ± 0.0026 | 0.2344 ± 0.0013
59 | R111C | 0.0572 ± 0.0021 | 0.077 ± 0.0042 | 0.157 ± 0.0054
60 | R111F | 0.0581 ± 0.00078 | 0.06927 ± 0.00052 | 0.328 ± 0.019
61 | R111M | 0.05772 ± 0.00026 | 0.0623 ± 0.0026 | 0.243 ± 0.001
62 | R111A | 0.0634 ± 0.0026 | 0.09932 ± 0.00052 | 1.17 ± 0.021
63 | R111W | 0.05937 ± 0.00052 | 0.0632 ± 0.0018 | 0.189 ± 0.0042
64 | E7I | 0.059 ± 0.001 | 0.0759 ± 0.0031 | 0.696 ± 0.014
65 | E94T | 0.0673 ± 0.0029 | 0.108 ± 0.03 | 1.27 ± 0.29
66 | E94I | 0.0555 ± 0.0034 | 0.08008 ± 0.00026 | 0.714 ± 0.013
67 | E94F | 0.0563 ± 0.0044 | 0.0579 ± 0.001 | 0.177 ± 0.006
68 | E94N | 0.0607 ± 0.0013 | 0.0755 ± 0.0047 | 0.659 ± 0.026
69 | E94Y | 0.0577 ± 0.0034 | 0.0553 ± 0.0047 | 0.153 ± 0.0047

Row | Variant | sfGFP reporter fluorescence [1] | sfGFP reporter fluorescence ([2]; ligand: 1 µM Pb) | sfGFP reporter fluorescence ([2]; ligand: 30 µM Zn)
70 | E94G | 0.0553 ± 0.0036 | 0.0656 ± 0.0031 | 0.52721 ± 0.00026
71 | E94K | 0.0612 ± 0.0026 | 0.0793 ± 0.0034 | 0.824 ± 0.043
72 | E94C | 0.0645 ± 0.0021 | 0.115 ± 0.011 | 0.946 ± 0.18
73 | E94V | 0.059 ± 0.0042 | 0.0847 ± 0.0052 | 0.739 ± 0.052
74 | P15Y | 0.0652 ± 0.0021 | 0.0684 ± 0.0034 | 0.368 ± 0.0021
75 | L27D | 0.0627 ± 0.0015 | 0.0603 ± 0.0018 | 0.0574 ± 0.0018
76 | L27N | 0.06322 ± 0.00026 | 0.0616 ± 0.0031 | 0.0601
77 | L27H | 0.0623 ± 0.0015 | 0.06322 ± 0.00026 | 0.0762 ± 0.001
78 | C55Y | 0.0601 ± 0.0021 | 0.0623 ± 0.001 | 0.06011 ± 0.00052
79 | C55L | 0.0608 ± 0.001 | 0.0702 ± 0.0013 | 0.173 ± 0.0091
80 | C55V | 0.0629 ± 0.0029 | 0.0773 ± 0.0047 | 0.273 ± 0.0029
81 | C55E | 0.061 ± 0.0013 | 0.06029 ± 0.00026 | 0.0607 ± 0.0013
82 | R53A | 0.0614 ± 0.0018 | 0.06652 ± 0.00026 | 0.487 ± 0.074
83 | I97F | 0.0535 ± 0.0042 | 0.0592 ± 0.0029 | 0.278 ± 0.036
84 | I97N | 0.0566 ± 0.0029 | 0.0603 ± 0.0039 | 0.325 ± 0.0065
85 | I97P | 0.0542 ± 0.0036 | 0.0561 ± 0.001 | 0.135 ± 0.0036
86 | I97L | 0.0596 ± 0.0023 | 0.0797 ± 0.0044 | 0.842 ± 0.014
87 | K104D | 0.0592 ± 0.006 | 0.138 ± 0.046 | 1.06 ± 0.18
88 | K104Y | 0.059 ± 0.0083 | 0.113 ± 0.028 | 1.09 ± 0.13
89 | K104C | 0.0614 ± 0.0091 | 0.133 ± 0.026 | 1.32 ± 0.18
